Experimental data reported in publication PMC10191836 (2023).
Values belong to the binder of their own block, whether it stands above or below them.

Target: T1, C-terminal region of human LTBP-1 (human, UniProt Q14766 1347-1721)
T1 chain: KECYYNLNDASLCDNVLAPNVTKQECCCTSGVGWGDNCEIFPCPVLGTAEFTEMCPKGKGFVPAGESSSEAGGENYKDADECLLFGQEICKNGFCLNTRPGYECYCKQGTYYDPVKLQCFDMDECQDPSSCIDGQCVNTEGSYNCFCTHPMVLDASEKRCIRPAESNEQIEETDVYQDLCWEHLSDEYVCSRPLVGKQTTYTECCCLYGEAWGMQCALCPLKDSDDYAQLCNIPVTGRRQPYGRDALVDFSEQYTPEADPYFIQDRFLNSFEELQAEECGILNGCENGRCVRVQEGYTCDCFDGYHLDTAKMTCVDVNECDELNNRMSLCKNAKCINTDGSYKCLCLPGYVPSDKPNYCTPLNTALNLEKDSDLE
Test: SPR

Kd: 17.7 nM
B1: recombinant human fibrillin-1 N-terminal fragment PF3 (domain or fragment)
chain: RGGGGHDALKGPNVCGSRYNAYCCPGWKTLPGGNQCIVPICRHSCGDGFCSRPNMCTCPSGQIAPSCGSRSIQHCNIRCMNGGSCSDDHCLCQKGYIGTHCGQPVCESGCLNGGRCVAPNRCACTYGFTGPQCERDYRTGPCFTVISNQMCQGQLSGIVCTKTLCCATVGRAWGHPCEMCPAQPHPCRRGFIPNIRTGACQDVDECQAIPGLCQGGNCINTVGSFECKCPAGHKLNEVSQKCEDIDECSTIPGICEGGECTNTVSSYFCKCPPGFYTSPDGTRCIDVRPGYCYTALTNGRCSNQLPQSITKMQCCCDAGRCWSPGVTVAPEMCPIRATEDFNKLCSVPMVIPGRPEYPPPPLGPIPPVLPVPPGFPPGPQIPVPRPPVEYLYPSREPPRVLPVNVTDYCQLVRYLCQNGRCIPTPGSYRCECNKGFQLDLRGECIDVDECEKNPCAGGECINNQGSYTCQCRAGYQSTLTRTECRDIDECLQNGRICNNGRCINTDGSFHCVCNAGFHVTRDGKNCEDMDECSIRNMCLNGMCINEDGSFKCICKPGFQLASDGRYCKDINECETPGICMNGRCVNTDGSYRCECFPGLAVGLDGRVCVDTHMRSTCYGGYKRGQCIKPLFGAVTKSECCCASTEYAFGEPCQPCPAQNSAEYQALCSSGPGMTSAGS

Kd: 50.1 nM
B2: recombinant human fibrillin-1 N-terminal fragment PF3 with the WMS deletion (domains TB1–PRR–EGF4) (domain or fragment)
chain: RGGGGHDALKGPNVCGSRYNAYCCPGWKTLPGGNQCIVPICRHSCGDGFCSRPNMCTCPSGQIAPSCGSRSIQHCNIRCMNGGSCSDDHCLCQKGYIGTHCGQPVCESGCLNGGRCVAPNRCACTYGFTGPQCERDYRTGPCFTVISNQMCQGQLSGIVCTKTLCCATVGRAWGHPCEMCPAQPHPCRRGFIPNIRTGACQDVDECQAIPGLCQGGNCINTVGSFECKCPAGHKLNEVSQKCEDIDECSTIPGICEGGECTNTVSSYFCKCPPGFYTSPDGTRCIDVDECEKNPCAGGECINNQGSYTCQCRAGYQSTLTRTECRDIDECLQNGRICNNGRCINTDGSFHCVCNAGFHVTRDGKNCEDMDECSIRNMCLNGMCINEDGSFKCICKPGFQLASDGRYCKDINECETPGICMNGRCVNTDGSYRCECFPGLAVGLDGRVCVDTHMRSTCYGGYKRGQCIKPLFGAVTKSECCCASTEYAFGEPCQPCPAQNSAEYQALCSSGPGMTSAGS
modifications: Calcium bound to the cbEGF domains; disulfide bonded. The PF3 end is not printed: it is taken as the end of TB2 (722), because the paper's fragment boundaries are at 330 and 723. The WMS deletion TB1-PRR-EGF4 is taken as 330-489 from domain limits. The N-terminus is assumed to be processed at 44/45.
